Target: T1, human CD180/MD-1 on HEK293 cells (human, UniProt Q99467 24-661; O95711 21-162)
T1 construct: whole, on cells; CD180 co-expressed with MD-1 on engineered HEK293 cells; also called HEK293 CD180/MD-1 cells; CD180/MD1 HEK293 cells
T1 sequence (looked up) 1: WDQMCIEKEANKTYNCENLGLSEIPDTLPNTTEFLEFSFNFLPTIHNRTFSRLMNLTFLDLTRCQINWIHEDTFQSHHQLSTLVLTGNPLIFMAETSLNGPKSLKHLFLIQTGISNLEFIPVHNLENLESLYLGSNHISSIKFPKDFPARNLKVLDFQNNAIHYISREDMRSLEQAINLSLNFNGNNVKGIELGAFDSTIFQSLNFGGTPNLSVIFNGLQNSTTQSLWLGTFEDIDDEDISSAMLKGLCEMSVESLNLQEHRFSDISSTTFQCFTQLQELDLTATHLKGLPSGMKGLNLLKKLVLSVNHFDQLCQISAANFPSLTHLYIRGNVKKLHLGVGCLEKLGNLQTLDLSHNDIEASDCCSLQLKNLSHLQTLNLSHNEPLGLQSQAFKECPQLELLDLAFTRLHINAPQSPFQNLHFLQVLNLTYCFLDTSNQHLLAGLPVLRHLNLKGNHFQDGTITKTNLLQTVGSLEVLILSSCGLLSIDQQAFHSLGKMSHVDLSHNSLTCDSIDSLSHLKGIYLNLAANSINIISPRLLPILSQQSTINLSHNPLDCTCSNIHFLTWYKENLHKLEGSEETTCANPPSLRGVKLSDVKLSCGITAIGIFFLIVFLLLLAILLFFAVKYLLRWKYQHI
T1 sequence (looked up) 2: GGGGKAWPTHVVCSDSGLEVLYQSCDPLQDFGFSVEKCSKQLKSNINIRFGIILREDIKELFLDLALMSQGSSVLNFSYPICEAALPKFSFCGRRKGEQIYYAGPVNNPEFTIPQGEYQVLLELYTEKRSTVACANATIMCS
Assay: flow cytometry (called cell-based ELISA) on HEK293 CD180/MD-1 cells, MFI fitted to a 4-parameter curve

EC50: 4 nM
B1: CHAMPmAb-014 (antibody, V domains shown)
VH: EVQLVESGGGLVQPGRSLRLSCTTSGFTFADYAMHWVRQTPGQGLEWVSGISWNGGTMGYADSVKGRFTISRDIAKNSLYLQMNSLRAEDTALYYCAKDIAYSRGYFQHWGQGTLVTVSS
VL: not shown

From patent EP4658690A2 (dated 2025)
